Measurements reported in the nanobody polyreactivity screen of Harvey et al. (2022).

Assay: yeast display, Sf9 membrane polyspecificity reagent, FACS + sequencing; frameworks hold sequencing errors
Outline: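 Galactose-induced (36–48 hours) yeast carrying a synthetic nanobody display library were exposed to 10% biotinylated, detergent-solubilized Sf9 membrane reagent at 4 °C for 1 hour. FACS followed streptavidin microbead enrichment, using low and high (top ~1%) gates for expression (anti-HA) and reagent binding (streptavidin). Colony PCR, MiSeq 2 × 250 sequencing and CDR-length filtering followed. Labels for polyreactivity reflect the gate of origin.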

Sequence | polyreactivity (PSR sort gate)
QVQLVESAGGLVQAGGSLRLSCPASGGISALYAMGWYRQAPGKERELVAAISASGGSTYYADSVKGRFTISRDNAKNTVYLQMNSLKPEDTAVYYCNVAVLTSDIYSTTIYYYGIYDYWGQGTQVTVSS | high polyreactivity
QVQLVESAGGLVQAGGSLRLSCSASGSTFSSNGMGWYRKAPGKERELVAAITSVGSTNYADSVKGRFTISRDNAKNTVYLQMNSLKPEDTAVYYCNAERTAYGGGDYWGQGTQVTVSS | low polyreactivity
QVQLVESAGGLVQAGGSLRLSSAASGRIFKYNAMGWYRQAPGKERELVAAISSSGARTYYADSVKGRFTISRDNAKNTVYLQMNSLKPEDTAVYYCAVYYYDFTSTEYGYWGLGTQVTVSS | high polyreactivity
QVQLVESAGGLVQAGGSLSLSCAASGFTFYRNAMGWYRQAPGQERELVAAISRSGGRTYYADSVKGRFTISRDNAKNTVYLQMNSLKPEDTSVYYCAVYVTRDSGWWLYDYWGQGTQVTVSS | high polyreactivity
QVQLVESAGGLVQAGGSLSLSCAASGRIFYSYAMGWYRQAPGKERELVAAISSAGSTYYADSVKGRFTMSRDNEKNTVYLQTNSLKPEDTAVYYCAAYRAGNSYYPRLNYWGQGTQVTVSS | high polyreactivity
QVQLVESAGGLVQAGGSLSLSCAASGRIFYYNTMGWYRQAPGKERELVAAISSTASTTYADSVKGRFTISRDNAKNTVYLQMNILKPEDTAVYYCAADHRYHWAYPRGYYYWGQGTQVTVSS | high polyreactivity
QVQLVESAGGLVQAGGTLRLSCAASGSIFRTHTMGWYRQAPGKERELVAAITAIGDSTYYADAVKGRFTISRDNAKNTVNRQLHSLKPEDTAVYYCAAEKVSWGYHFYSSYDYWGQGTQVTVSS | low polyreactivity
QVQLVESAGGLVQAGVSLRLSCAASGRTFYWYTMGWYRQAPGKERELVAAISSAGSTYYADSVKGRFTISRDNAKNTVYLQMNSLKPEDTAVYSCAAGSHSGRAYYYWGQGTQVTVSS | high polyreactivity
QVQLVESAGGLVQARGSLRLSCAASGITFAQYAKGWYRQATGKERELVAGITRSGGSTHYADSVKGRFTISRDNAKYTVYLQMKSLKPEDSAVYYCNARYPYRGKRKPPDYWGQGTQVTVSS | high polyreactivity
QVQLVESAGGLVQEGGSLRISCAASGRIFFYYSMGWYRQAPGKERELVAAISQSGGSTYYADSVKGRFTISRDNAKNTVYLQMNSLKPEDTAVYYCNAADPYYDTSAVAGDYWGHGTQVTVSS | low polyreactivity
QVQLVESAGGLVQEGGSLRLSCAASGSTFGDNAMGWYSQAPGKERELVAAITSVGTTYYADSVKGRFTISRDNAKNTVYLQMNSLKPEDSAVYDCNADWSWYNYYDFDYWGQGTQVTVSS | low polyreactivity
QVQLVESAGGVVQAGGSLRLSSAASGSIFDGNAMGWYRPAPGKERQLVAAISGGGRTYYADSVKGRFTISRDNAKNTVYLQMNSLKPEDTAVYYCAAAYTFYVYGSYKVTFDYWGQGTQVTVSS | low polyreactivity
QVQLVESAGVLVQAGGSLRLSCAACGSIFDYYALGWYRQAPGKERELVDTISGGGGTTYYADSVKGRFTISRDNAKNTVYLIMNSLKPEDTAVYYCAADSLGYNYWGQGTQVTVSS | low polyreactivity
QVQLVESCGCLVQAGCSLRLSCAASGSTFQGYAMGWYRQAPGKERELVAAITIRGTRTYYADSVKGRFTISRDNAKNTVYLQMNSLKPEDTAVYYCAAYDYRHLEDKYDYWGQGTQVTVSS | high polyreactivity
QVQLVESCGGIVQAGGSLRLICAASGRIFDSNAMGWYRQSPGKETELVAAITTSGGSTFYADSVKVRFTISRDNAMNTVYLQMISLKPEDTAVYYCAAGYSFYYHAIFPFDYWGQGNQVTVSS | high polyreactivity
QVQLVESCGGLVHAGGSLRLSCAASGRTCVGNVMGWYRQAPGKERELVAAISRSGGNTYYADSVKGRFTISRDNAKNTVYLLMNSLKPEDTAVYYCAKVGLYGPVEYDYWGQGTQVTVSS | high polyreactivity
QVQLVESCGGLVQAGGILRLSCAASGFISSENAMGWYRQAPGKERELVAAISSGGSTNYADSVKGRFTISRDNAKNTVYLQMNRLKAEVTAVYYCAATLQGWYHEDESWGQGTQVTVSS | low polyreactivity
QVQLVESCGGLVQAGGRLRLSCADYGRTFSWYAMGSYRQAPGKERELVAAITFRGGRTYYADSVKGRFTISRDNAKNTVYIQMNSLKPEDTAVYYFNAVTYSSPYRFDYCGQGTQVTVSS | low polyreactivity
QVQLVESCGGLVQAGGSLRISCAASGIIFHLYAMGWYRQAPGKQRELVAAISWNGSSTYYADSVKGRFTISRDYAKNTVYLQRNSLKPEDTAVYYCAASYGYFEDYGYWGHGTQVTVSS | low polyreactivity
QVQLVESCGGLVQAGGSLRLICAASGRNFGHNAMGWYRQAPGKEREFVAAITYSGVRTFFADSVKGRFTISRDNAKNTVYLQMNCLKPEDTAVYYCATDWRRYYDYWGQGTQVTVSS | low polyreactivity
QVQLVESCGGLVQAGGSLRLSCAASGFIFRIYAMGWYRQAPGKERELVAAITWSGGRTFYADSVKGRFTISRDNAKNTVYLQMNSLKPEDTAVFYCAARGRSSGFGYWGQGTQVTVSS | high polyreactivity
QVQLVESCGGLVQAGGSLRLSCAASGFIFRSYAMGWYRKAHGKERELVAAISRSGGSTYYADSVKGRFTISRDNAKNTVYLQMNSLKPEDTAVYYCATDGGRSTARGFGHWGQGTQVTVSS | high polyreactivity

Sequence | polyreactivity (PSR sort gate)
QVQLVESCGGLVQAGGSLRLSCAASGFIIGYYAMGWYRQAPGKERELVAAISSTGGSTYYADSVKGRFTISRDNAKNNVYLQMNSLKPEDTAVYYCAKRFAYYRYHPGYDYWGQGTQVTVSS | high polyreactivity
QVQLVESCGGLVQAGGSLRLSCAASGFTFWRYAMGWYRQAPGKERELVAAISRTGGRTYYADSVKGRFTISRDNAKNTVYLQMNSLKPEDTAVYYCAAVKYETYRYNYDYWGQGTQVTVSS | high polyreactivity
QVQLVESCGGLVQAGGSLRLSCAASGGTIVFYAMGWYRQAPGKERELVAAISSSGGSTYYADSVKGRFTISRDNAKNTVYLQMNSLKPEDTAVYYCNTPSYSGSSPYDHWGQGTQVTVSS | high polyreactivity
QVQLVESCGGLVQAGGSLRLSCAASGIIFGVYALGWYRQAPGKERELVAAIDGNGSSTSYADSVKGRFSISRDNAKNTVYLQINSLKPEDTAVYYCAAGYWYYLYYCYDFDYWGQGTQVTVSS | low polyreactivity
QVQLVESCGGLVQAGGSLRLSCAASGITIDYYAMGWYRQAPGKERELVAAISSVGNTNYADSVKGRFTISRDNAKNTVYLQMNSLKPEDTAVYYCAARAYGQRLYRVWSGYGYWGQGTQVTVSS | high polyreactivity
QVQLVESCGGLVQAGGSLRLSCAASGRIFRDYAMGWYRQAPGKERELVATITRSGGRTYYADSVKGRFTISRDNAKNTVFLQMNSLKPEDTSVYYCAATYWTYPYHYQYKYDYWGQGTQVTVSS | high polyreactivity
QVQLVESCGGLVQAGGSLRLSCAASGRNFYFNAMGWYRKAPGKERELVARISTGGITNYADSVKGRFTISRDNAKITVYLQMNSLKPEDTAVYYCAADYRRTWRYNYCGQGTQVTVSS | high polyreactivity
QVQLVESCGGLVQAGGSLRLSCAASGSIFPFNAMGWYRQAPGKQRELVAAITRSGGSTYYADSVKGRITISRYIAKNSVYLQMNSLKPQDTAVYYCATDPEWPLPAYYYWGQGTQVTVSS | low polyreactivity
QVQLVESCGGLVQAGGSLRLSCAASGSIFQSYAMGWYRQAPGKERELVAAITERGGSTYYADSVKGRFTISRDNAKNTVYLQMNSLKPEDTAVYYCAADIYYWWGLSDLYTPTEGDYWGQGTQVTVSS | low polyreactivity
QVQLVESCGGLVQAGGSLRLSCAASGSIFRSFAMGWYREAPWKERELVAAISSGGRTKYADSVKGRFTISRDNAKNTVYLQMNSLKPEDTAVYYCAARVNVKYYGFYYWGQGTQVTVSS | high polyreactivity
QVQLVESCGGLVQAGGSLRLSCAASGSIFYFNAMGWYREAPGKERELVAAINISGSSTSYADSVKGRFTISRDNAKNTVYLQMNSLKPEDTAVYYCAAEDEPRILIVRVWDYYWGQGTQVTVSS | low polyreactivity
QVQLVESCGGLVQAGGSLRLSCAASGSTFTPNAMGWNRQAPGKERELVAAIRGLNGRTYYADSVKGRFTISRDNAKNTVYLQMNSLKPEDTAVYYCAAGGYSYYFAWHDYWGQGTQVTVSS | low polyreactivity
QVQLVESCGGLVQAGGSLRLSCAASGSTLYYYAMGWYRQAPGKERELVASISWSGGRTYYADSVKGRFTISRDNAKYTVYLQMNSLKPEDTAVYYCNAVPYRGYDYWGQGTQVTVSS | low polyreactivity
QVQLVESCGGLVQAGGSLRLSCAASVSTFLFYAMGWDRQAPRKERELVAAITSGDSTNYADSVKGRFTISRDNAKNTVYLQMNSLKPEDTAVYYCAASRFGAYYWGQGTQVTVSS | high polyreactivity
QVQLVESCGGLVQAGGSLRLSCADSGRTIYVNAMGCYRQAPGKERELVARITSGGSTYYADSVKGRFTISRDNAKNTVYLQMNSLTPEDTAVLYCAKKYIGYQDWIHSTRRYDYWGQGTQVTVSS | low polyreactivity
QVQLVESCGGLVQAGGSLRLSCADSGYTFTTYVMGWYRQAPGKERELVAAISRRGTSTRYADSVKGRFTISRDNAKNTVYFQMNSLKPEDTAVYYCAARSSVPNRFTRDGYWGQGTQVTVSS | high polyreactivity
QVQLVESCGGLVQAGGSLRLSCDASGITFNYNAMGWYRQAPGKERELVARITWSGTRTYYADSVKGRFTISRDNAKNTVYLQMNSLKPEDTAVYYCNAGPYARYYWGQGTQVTVSS | high polyreactivity
QVQLVESCGGLVQPGGSLRLSCAASGSILKSYAMGWYRKAPGKERELVAAITYRDGSTYYADSVKGRFTISRDNSKNTVYLQMNSLKPEDTAVYYCAAEPSWWNVFYPGYNYWGQGTQVTVSS | high polyreactivity
QVQLVESCGGLVQPGGSLRLSCAASGSTFVNYAMGWYRQAPGKERELVAAITRGVRTYYADSVKGRFTISRDNAKNTVYLQMNSLKAEDTAVYYCNRAIGPYSYPDNYWGQGTQVTVSS | high polyreactivity
QVQLVESCVGLVQAGGSLRLSCAASGRIFSRYAMGWYRQAPGKERELVADITWSGGRPYYADSVKGRFTISRDNAKNTVYLQMNSLKPEDTAVYDCAATGGFSWSRDYWGLGTQVTVSS | low polyreactivity
QVQLVESDGGLVQAGGSLRLSCAASGSTFNVYAMGWNRQAPGKERELVAAITSGGSTYYADSVKGRFTISRDNANNTVYLQMISQKPEDTAVYYCADDVSLSVFKLDYWGQGTQLTVSS | low polyreactivity
